Reference: PMC11711090

Legend:
[1] = target: nCPEB4(NTD), N-terminal domain of neuronal CPEB4 (with microexon 4) (human) (UniProt Q17RY0); experiment: SEC-MALS
[2] = target: CPEB4 extracted from the brains of 6-month-old TgCPEB4Δ4 mice (human | mouse (endogenous in brain)) (UniProt Q17RY0); experiment: SEC + other: SDD-AGE

| stoichiometry N [1] | aggregated CPEB4 eluting in the void volume, normalized to control mice [2] | Substance |
| --- | --- | --- |
| 350 |  | nCPEB4(NTD), N-terminal domain of neuronal CPEB4 (with microexon 4) (from UniProt Q17RY0-2 1-448) (domain or fragment) |
|  | 10.8 | CPEB4 extracted from the brains of 6-month-old TgCPEB4Δ4 mice (from UniProt Q17RY0 1-729; Q7TN98 1-729) (natural protein) |
